B1: Azoarcus group I ribozyme (parent)
chain: GUGCCUUGCGCCGGGAAACCACGCAAGGGAUGGUGUCAAAUUCGGCGAAACCUAAGCGCCCGCCCGGGCGUAUGGCAACGCCGAGCCAAGCUUCGGCGCCUGCGCCGAUGAAGGUGUAGAGACUAGACGGCACCCACCUAAGGCAAACGCUAUGGUGAAGGCAUAGUCCAGGGAGUGGCGAAAGUCACACAAACCGG

Variants of: B1
Assay: reverse-splicing fitness (ratio to wild type); higher = more active; in vitro selection; Mg2+ level not given
Method in brief: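 An in vitro group I ribozyme library with randomized positions was T7-transcribed and gel-purified. In triplicate, 10 pmol RNA in EPPS pH 7.5 was reacted with 50 pmoles of a 30-nt RNA substrate for 1 h at 37 °C across several added MgCl2 levels (1–48 mM), then stopped with EDTA. Products were reverse transcribed from a substrate-complementary primer, PCR-amplified and sequenced (HiSeq 4000). Fitness is a variant's read proportion after selection over that before, normalised to wild type.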

Variant	reverse-splicing fitness
A120C A145C C150G C169G U176G	0.00352
A120C A145U C150A C169G U176G	0.00376
A120C A145U C150A C169G U176C	0.0105
A120C A145U C150A C169G U176A	0.00974
A120C A145U C150G C169G U176A	0.00633
A120C A145U C150G C169G U176G	0.00367
A120C A145U C150G C169G U176C	0.00537
A120C A145C C150U C169G U176A	0.0156
A120C A145C C150U C169G U176C	0.00823
A120C A145C C150U C169G U176G	0.00381
A111U C150A C169A U176G	0.00646
A111U C150A C169A U176A	0.0182
A111U C150A C169A U176C	0.0168
A120C A145G C150A C169A U176G	0.00483
A120C A145G C150A C169A U176C	0.0217
A120C A145G C150A C169A U176A	0.0168
A120C A145G C150G U176A	0.0905
A120C A145G C150G U176G	0.019
A120C A145G C150G U176C	0.146
A120C A145C C150U C169U U176G	0.00874
A120C A145C C150U C169U U176A	0.0792

Variant	reverse-splicing fitness
A120C A145C C150U C169U U176C	0.0863
A111U A145U C150U C169U U176G	0.00684
A111U A145U C150U C169U U176A	0.022
A111U A145U C150U C169U U176C	0.0268
A111U A145G C150G C169U U176C	0.0136
A111U A145G C150G C169U U176G	0.0076
A111U A145G C150G C169U U176A	0.0111
A111U A145U C150A U176A	0.192
A111U A145U C150A U176G	0.0853
A111U A145U C150A U176C	0.228
A120C A145C C150U U176G	0.137
A120C A145C C150U U176C	0.317
A120C A145C C150U U176A	0.398
A120C A145G C150A	0.32
A120C A145G C150G	0.234
A120C A145G C150U	0.781
A120C A145C C150G C169A U176A	0.00776
A120C A145C C150G C169A U176G	0.00424
A120C A145C C150G C169A U176C	0.00596
A111U C150U	0.89
A111U C150A	0.372

Variant	reverse-splicing fitness
A111U C150G	0.308
A120C A145G C150U C169G	0.0232
A120C A145G C150U C169U	0.432
A120C A145G C150U C169A	0.0324
A120C A145G C150U C169U U176A	0.125
A120C A145G C150U C169U U176C	0.186
A120C A145G C150U C169U U176G	0.0092
A111U C150U U176A	0.6
A111U C150U U176C	0.638
A111U C150U U176G	0.251
A120C A145U C150G C169A U176A	0.0113
A120C A145U C150G C169A U176G	0.0044
A120C A145U C150G C169A U176C	0.00821
A111U A145U C150A C169A U176C	0.00995
A111U A145U C150A C169A U176A	0.0131
A111U A145U C150A C169A U176G	0.00582
A120C A145C C169U U176G	0.0155
A120C A145C C169U U176A	0.143
A120C A145C C169U U176C	0.177
A111U A145U C169U	0.109
A111U A145U C169G	0.0652

Variant	reverse-splicing fitness
A111U A145U C169A	0.0323
A111U A145U C150A C169G U176G	0.0065
A111U A145U C150A C169G U176A	0.0129
A111U A145U C150A C169G U176C	0.0169
A111U C150A U176A	0.207
A111U C150A U176C	0.251
A111U C150A U176G	0.0846
A111U A145U C150U C169A U176A	0.0144
A111U A145U C150U C169A U176C	0.0104
A111U A145U C150U C169A U176G	0.00694
A111U A145U C150U C169G U176G	0.00643
A111U A145U C150U C169G U176C	0.0192
A111U A145U C150U C169G U176A	0.016
A111U C150U C169U U176A	0.0262
A111U C150U C169U U176G	0.00705
A111U C150U C169U U176C	0.0237
A120C A145C C169U	0.431
A120C A145C C169G	0.0239
A120C A145C C169A	0.0312
A120C A145C C150G C169U U176C	0.0503
